# Molecular target: T1, Egalitarian (EGL) (UniProt Q9W1K4)
# T1 sequence: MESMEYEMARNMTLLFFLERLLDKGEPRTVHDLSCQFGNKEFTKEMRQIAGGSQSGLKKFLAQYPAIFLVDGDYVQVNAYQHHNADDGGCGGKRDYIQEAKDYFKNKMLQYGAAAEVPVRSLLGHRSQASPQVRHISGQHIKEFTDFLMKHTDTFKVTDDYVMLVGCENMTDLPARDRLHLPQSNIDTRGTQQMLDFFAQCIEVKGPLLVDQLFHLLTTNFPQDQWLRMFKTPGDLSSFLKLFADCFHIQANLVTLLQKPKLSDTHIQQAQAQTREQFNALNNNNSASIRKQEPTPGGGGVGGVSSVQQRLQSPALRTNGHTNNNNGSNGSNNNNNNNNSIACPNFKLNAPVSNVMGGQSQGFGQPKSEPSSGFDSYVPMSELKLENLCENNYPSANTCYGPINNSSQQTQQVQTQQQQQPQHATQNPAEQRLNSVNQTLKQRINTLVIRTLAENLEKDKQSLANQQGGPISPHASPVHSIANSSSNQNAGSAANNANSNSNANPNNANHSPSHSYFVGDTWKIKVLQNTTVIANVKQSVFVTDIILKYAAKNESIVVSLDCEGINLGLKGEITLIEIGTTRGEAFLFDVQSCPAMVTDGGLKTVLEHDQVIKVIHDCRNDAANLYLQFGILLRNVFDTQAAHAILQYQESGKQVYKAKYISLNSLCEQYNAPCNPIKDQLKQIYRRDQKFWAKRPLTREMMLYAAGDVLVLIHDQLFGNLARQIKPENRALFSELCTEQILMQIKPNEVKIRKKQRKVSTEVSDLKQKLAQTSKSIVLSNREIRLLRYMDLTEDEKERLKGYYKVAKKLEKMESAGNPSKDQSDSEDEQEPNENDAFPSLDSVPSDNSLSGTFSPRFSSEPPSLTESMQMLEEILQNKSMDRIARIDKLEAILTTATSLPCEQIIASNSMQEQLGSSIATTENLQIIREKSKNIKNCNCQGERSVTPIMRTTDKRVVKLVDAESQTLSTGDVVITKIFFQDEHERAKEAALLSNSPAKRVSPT
# Test: pull-down
# Conditions: reference (all sets normalized to TLS); EGL capture: DXB buffer (30 mM Hepes pH 7.3, 50 mM KCl, 2.5 mM MgCl2, 250 mM sucrose, 1 mM DTT), protease and RNase inhibitors, 90 min (binding temperature not …)
substance,measurement,value
fs(1)K10 TLS,binding signal (fraction of TLS binding),1

# From paper PMC8046350
